The text below walks through data of the supplement of paper PMC10567573.

± gives the standard deviation.

This data set is described as follows: protein stability index of a GFP-peptide fusion (GPS, HEK-293T) (PSI 1-6); higher = more stable. The following applies: c terminus: a fixed tail appended.
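Further: 24-mer peptide tiles fused after GFP, lentivirally expressed, FACS-sorted into six equal bins by GFP/DsRed ratio, decoded by Illumina sequencing, PSI is the read-weighted mean bin number.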

Consider NESRYMIYEFWENSSVWNSHLQTN [NECAB1], for which the protein stability index (treatment: DMSO) is 2.26 ± 0.26 and the protein stability index (treatment: MLN4924 1 uM, 8 h) was found to be 2.24 ± 0.23.
Regarding NEYAYLPLHVHEEEGILVAVGQDC [DCAF4], the protein stability index reads like this: (treatment: DMSO) 3.75 ± 0.18; (treatment: MLN4924 1 uM, 8 h) 3.91 ± 0.12.
The corresponding values for NEYRKLHPVLHKEEKQHLERLNKE [TRIM43] are 4.9 ± 0.21 and 4.87 ± 0.081.
With NFRVGKKIGCGNFGELRLGKNLYT [CSNK1G1], the protein stability index (treatment: DMSO) was found to be 2.24 ± 0.4 and the protein stability index (treatment: MLN4924 1 uM, 8 h) turned out to be 2.11 ± 0.15.
The matching figures for NHHSPGGSSDASGSYSSTMNGHQN [ESRRG]: 4.86 ± 0.23 and 5.05 ± 0.17.
The corresponding values for NHTTVTNSTPLRAACFDGRLDIVK [FEM1B] are 3.46 ± 0.23 and 3.4 ± 0.25.
For NKATNTDHLTTVLYLQLAICSSLQ [C8orf76], the protein stability index turned out to be 3.4 ± 0.44 (treatment: DMSO) and 3.21 ± 0.64 (treatment: MLN4924 1 uM, 8 h).
The matching figures for NKNSTDVKGCSMYVALFPCNECAK [DCTD]: 2.19 ± 0.37 and 2.13 ± 0.14.
NKRAALQALKRKKRFEKQLTQIDG [CHMP4C] displayed a protein stability index (treatment: DMSO) of 3.95 ± 0.42 and a protein stability index (treatment: MLN4924 1 uM, 8 h) of 3.9 ± 0.34.
Take NLIEKSASLDNGGCALTTFSVLEG [SOAT1]: the protein stability index (treatment: DMSO) turned out to be 3.28 ± 0.37 and the protein stability index (treatment: MLN4924 1 uM, 8 h) was determined as 3.32 ± 0.32.
Sequence NLLALGTDRKLDDGDDKVFRRAPS [PPFIA4] registered a protein stability index (treatment: DMSO) of 4.51 ± 0.25 and a protein stability index (treatment: MLN4924 1 uM, 8 h) of 4.5 ± 0.24.
The matching figures for NLLQDSSTSDSDLTCDSSTSSSDD [C18orf25]: 5.53 ± 0.3 and 5.61 ± 0.16.
As for NLRKQLETLSGDRVRLDSELRNVQ [KRT71], the protein stability index reads like this: (treatment: DMSO) 3.69 ± 0.08; (treatment: MLN4924 1 uM, 8 h) 3.74 ± 0.15.
The corresponding values for NLTSNEGHSLKNLEHRLNEMERTQ [RASAL3] are 4.28 ± 0.32 and 4.26 ± 0.25.
The matching figures for NNLTDRIVVIPGKVEEVSLPEQVD [CARM1]: 5.1 ± 0.13 and 5.27 ± 0.23.
The matching figures for NPPRAEFNYSVGFKDLNESLNALE [APBB1IP]: 3.48 ± 0.26 and 3.65 ± 0.21.
Consider NRNLQKFSLFGDISVLQQQGSLSN [FBXO33], for which the protein stability index reads like this: (treatment: DMSO) 2.83 ± 0.28; (treatment: MLN4924 1 uM, 8 h) 2.86 ± 0.32.
The corresponding values for NTAKSTSRVTAFLDDLSQKLKPLG [NLN] are 3.42 ± 0.15 and 3.35 ± 0.044.
For the sequence NTEVPARNLYAYIQKLTQIETGEN [PTPRD], the protein stability index came to 3.39 ± 0.22 (treatment: DMSO) and 3.37 ± 0.37 (treatment: MLN4924 1 uM, 8 h).
The matching figures for NVQTEFPGEDENPEKASELSQVEL [TRIM55]: 5.48 ± 0.35 and 5.57 ± 0.3.
The matching figures for NVSGLRFETQMKTLAQFPETLLGD [KCNA4]: 3.53 ± 0.48 and 3.86 ± 0.1.
The corresponding values for NWFNVTGSDKCVFLKNTEVSSMEC [CD69] are 2.82 ± 0.25 and 2.94 ± 0.26.
In the case of NYCSAYESFYESTSPECASPQFEG [NEUROD6], the protein stability index reads like this: (treatment: DMSO) 3.54 ± 0.22; (treatment: MLN4924 1 uM, 8 h) 3.67 ± 0.16.
For the sequence PAFVKFAYVAEREDELSLVKGSRV [NCK2], the protein stability index by setting is: (treatment: DMSO) 3.09 ± 0.34; (treatment: MLN4924 1 uM, 8 h) 3.08 ± 0.39.
For the sequence PAIADLFAESLQCKVDCEANLTPN [P3H4], the protein stability index reads like this: (treatment: DMSO) 3.93 ± 0.38; (treatment: MLN4924 1 uM, 8 h) 4.05 ± 0.55.
As for PAQSGILSDREVVNLFLHFTVNPK [BTBD1], the protein stability index by setting is: (treatment: DMSO) 1.84 ± 0.24; (treatment: MLN4924 1 uM, 8 h) 2.53 ± 0.23.
As for PASRRRVVEEVRRRATSGGKWPQV [LPCAT4], the protein stability index runs as follows: (treatment: DMSO) 3.99 ± 0.17; (treatment: MLN4924 1 uM, 8 h) 3.82 ± 0.23.
With PDEANVGKHPKDKTEDENKQSFLD [TOR1AIP2], the protein stability index was 5.42 ± 0.21 (treatment: DMSO) and 5.75 ± 0.2 (treatment: MLN4924 1 uM, 8 h).
Consider PDVLRTKPAFIGKTNLDGMITVQL [PTPRD], for which the protein stability index (treatment: DMSO) was determined as 2.52 ± 0.53 and the protein stability index (treatment: MLN4924 1 uM, 8 h) was found to be 2.13 ± 0.57.
The matching figures for PDVTQQLLQKYNMQFLIRSHECKP [PPEF2]: 2.8 ± 0.21 and 2.71 ± 0.25.
In the case of PEAKVLHTKRLYRAVVEAVHRLDL [SMG5], the protein stability index by setting is: (treatment: DMSO) 2.19 ± 0.3; (treatment: MLN4924 1 uM, 8 h) 2.17 ± 0.11.
The matching figures for PEGQELQKLGSGAWDNPAYSGPPS [PKD2L1]: 4.53 ± 0.35 and 4.93 ± 0.36.
As to PELLSTHPFFDTAEPDMDDPAYIA [INTS4], the protein stability index came to 5.12 ± 0.22 (treatment: DMSO) and 5.16 ± 0.12 (treatment: MLN4924 1 uM, 8 h).
Take PEPQVPGPAHGPAQEEPWEKKESL [ZNF232]: the protein stability index (treatment: DMSO) stood at 5.55 ± 0.29 and the protein stability index (treatment: MLN4924 1 uM, 8 h) stood at 5.62 ± 0.2.
The corresponding values for PEPVYKLTQRQVNITVQKKVSQWW [HACD3] are 2.35 ± 0.49 and 2.51 ± 0.31.
The matching figures for PESKEPVEKEEEPDPEPPPVTPQV [SMG5]: 5.54 ± 0.25 and 5.46 ± 0.38.
The matching figures for PFILPDMVGGNAVPQRTAGGDVPE [MYORG]: 4.96 ± 0.24 and 5.09 ± 0.2.
PFPLGASAQNGLASSLPAEVHSLT [PLAGL1] came in with a protein stability index (treatment: DMSO) of 3.94 ± 0.089 and a protein stability index (treatment: MLN4924 1 uM, 8 h) of 4.09 ± 0.16.
The corresponding values for PGEWLELLLEPGSLYILRGSARYD [ALKBH7] are 3.2 ± 0.38 and 3.08 ± 0.51.
Consider PGGITSHQLLGLFPSTSYNARLQA [TNXB], for which the protein stability index by setting is: (treatment: DMSO) 2.98 ± 0.084; (treatment: MLN4924 1 uM, 8 h) 3.02 ± 0.085.
As to PGIDIREDLAQKLNLEEDRIQIWF [HESX1], the protein stability index (treatment: DMSO) stood at 2.55 ± 0.56 and the protein stability index (treatment: MLN4924 1 uM, 8 h) amounted to 2.43 ± 0.41.
With PGPMGPPGPPGPTGVPGSPGHIGP [EMID1], the protein stability index came to 4.82 ± 0.4 (treatment: DMSO) and 5.18 ± 0.34 (treatment: MLN4924 1 uM, 8 h).
For PGQHLSDYSQLNESTTKESSEASQ [FBXO34], the protein stability index turned out to be 5.47 ± 0.28 (treatment: DMSO) and 5.6 ± 0.24 (treatment: MLN4924 1 uM, 8 h).
For PGRPARLDQLLDMPAAGLAVQLRH [SPSB4], the protein stability index reads like this: (treatment: DMSO) 3.04 ± 0.36; (treatment: MLN4924 1 uM, 8 h) 3.33 ± 0.27.
In the case of PGYLPGAMPPYGQGPPMVPPYQGG [ZNF207], the protein stability index is, setting by setting: (treatment: DMSO) 3.57 ± 0.2; (treatment: MLN4924 1 uM, 8 h) 3.42 ± 0.2.
The matching figures for PHCSDLMPSGSEEKILRELSEEEE [KCNA4]: 5.64 ± 0.23 and 5.56 ± 0.24.
Take PKEATVMCEQCDVFYCDPCRLRCH [TRIM9]: the protein stability index was found to be 3.65 ± 0.28 (treatment: DMSO) and 3.82 ± 0.42 (treatment: MLN4924 1 uM, 8 h).
Regarding PKMLVDLLSQKKTISFLGCAIQMF [OR10K2], the protein stability index worked out at 2.84 ± 0.58 (treatment: DMSO) and 2.93 ± 0.62 (treatment: MLN4924 1 uM, 8 h).
The matching figures for PKNDNVVIPECAHGGLYKPVQCHP [SMOC2]: 3.44 ± 0.15 and 3.6 ± 0.36.
PLLGVKGDGKSKKKQAGRPKGSKG [RBBP5]: the protein stability index stood at 4.88 ± 0.15 (treatment: DMSO) and 4.88 ± 0.35 (treatment: MLN4924 1 uM, 8 h).
The matching figures for PLTSVCYPQDLPRPLRSREFPQFE [TRAF3IP2]: 3.75 ± 0.27 and 3.62 ± 0.4.
The sequence PLVTAIEIVSIWILSFILAIPEAI [EDNRA] came in with a protein stability index (treatment: DMSO) of 3.48 ± 0.8 and a protein stability index (treatment: MLN4924 1 uM, 8 h) of 3.68 ± 0.15.
As for PMENLEKQLICPICLEMFTKPVVI [TRIM63], the protein stability index reads like this: (treatment: DMSO) 2.43 ± 0.089; (treatment: MLN4924 1 uM, 8 h) 2.38 ± 0.36.
The matching figures for PMQKLQDLVNRTPWKKCCFSGDGE [RBBP5]: 2.84 ± 0.15 and 2.94 ± 0.071.
The corresponding values for PMTPEDPSFWDCFCFTEEIPIRNG [AASDHPPT] are 3.56 ± 0.093 and 3.67 ± 0.2.
With PMVTSPREEQQLLASTSKPVVKLL [KCTD13], the protein stability index by setting is: (treatment: DMSO) 4.26 ± 0.32; (treatment: MLN4924 1 uM, 8 h) 4.25 ± 0.11.
The matching figures for PPAMPPPATHLSPALAPVPRNSCI [TRIM9]: 4.39 ± 0.13 and 4.38 ± 0.17.
The matching figures for PPPCKFGEGKLSKRLKHKDDSVMK [C22orf31]: 4.51 ± 0.15 and 4.61 ± 0.06.
The matching figures for PPPPPPAQTFLFQGQPVVNRPLSL [TRADD]: 3.71 ± 0.4 and 3.99 ± 0.29.
In the case of PQHAADTPKSGEPRVPEEAAQDRP [YJU2B], the protein stability index (treatment: DMSO) was determined as 5.62 ± 0.26 and the protein stability index (treatment: MLN4924 1 uM, 8 h) turned out to be 5.42 ± 0.26.
Turning to PRVLTLSERPLDFLDLERPPTTPQ [MFF], the protein stability index was found to be 4.26 ± 0.19 (treatment: DMSO) and 4.53 ± 0.41 (treatment: MLN4924 1 uM, 8 h).
The corresponding values for PSDDLTLLESSSSYKNLTLKFHKL [MCOLN1] are 3.24 ± 0.21 and 3.31 ± 0.24.
The corresponding values for PSEKKVAIIRTPPKSPATPKQLRL [MAP2] are 4.2 ± 0.15 and 4.28 ± 0.15.
For PSGAGKTVVGVPSGKVSSSSSSLG [ZC2HC1A], the protein stability index by setting is: (treatment: DMSO) 4.47 ± 0.35; (treatment: MLN4924 1 uM, 8 h) 4.65 ± 0.14.
The matching figures for PSIIPQEDPSQQFLQQSLERVYSL [INTS4]: 3.58 ± 0.17 and 3.58 ± 0.28.
For the sequence PSNTGSRTTSVRCRGIPRGPVRPA [NEK8], the protein stability index reads like this: (treatment: DMSO) 3.89 ± 0.089; (treatment: MLN4924 1 uM, 8 h) 4 ± 0.17.
Take PSWAALNSSTWGSLKQALKGLSVE [SNX8]: the protein stability index stood at 2.94 ± 0.17 (treatment: DMSO) and 3.46 ± 0.29 (treatment: MLN4924 1 uM, 8 h).
The matching figures for PVCADLQAKILQCYRENTHQTLKC [CHCHD3]: 3.02 ± 0.23 and 3 ± 0.25.
The matching figures for PVCPTVCPPGGIHQVTVNESLLAP [KRT71]: 4.36 ± 0.082 and 4.16 ± 0.21.
The corresponding values for PVNALVSHLLVVEPEKLYAMPDPA [ESRRA] are 2.88 ± 0.24 and 2.92 ± 0.27.
With PWCPHLVAVCPIPAAGLDVTQPCG [HDAC6], the protein stability index (treatment: DMSO) stood at 2.4 ± 0.24 and the protein stability index (treatment: MLN4924 1 uM, 8 h) was determined as 2.67 ± 0.34.
The matching figures for PYTPPATSHRRVTDVRGLEEFLSA [PLEKHN1]: 3.98 ± 0.19 and 3.91 ± 0.35.
